# ± gives the uncertainty stated by the source.
# Experiment: amyloid nucleation score (Sup35N fusion, yeast selection) (log enrichment); library NNK2; higher = more nucleation; inactive = no reads after selection
# Outline: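 After 24 hours of induction with 100 μM copper sulfate, psi-negative yeast expressing peptides of 20 random codons fused to Sup35N were grown for 7 days at 30°C on medium lacking adenine and uracil. Input and output plasmid inserts were sequenced with Illumina, and sequences with under 100 input reads were discarded. Scores for nucleation are the DiMSum log enrichment of output over input reads, centred on the mode score of non-aggregating sequences.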
row,Substance,amyloid nucleation score
1,RWGMRYIMDWY,0.007 ± 1.1
2,VGRGASRNFSCFSLVKFREK,3 ± 0.062
3,DFTRYYFYIPHRRVHTVH,-0.763 ± 0.4
4,SIDSRYW,-0.283 ± 0.63
5,ERGGIYWHVGRFSPDSEVTF,-0.27 ± 0.76
6,YGFGRHKNGAAMPTMYFAMS,-0.014 ± 0.41
7,RHTYVHYAHKVYLESFLGCG,6.327 ± 0.04
8,WIMNKANNCKCFIEDTNWS,7.352 ± 0.044
9,RLIACIRIVSVVVNAVSLKG,1.79 ± 0.42
10,IHRPTRFYTFSSSTSEQA,0.351 ± 0.64
11,LSGFKYWLRWL,inactive
12,WELHMI,-0.61 ± 1.1
13,RDGKDRAYCGW,0.483 ± 0.5
14,TSCHRLWLLFMCIAGG,-0.199 ± 0.79
15,LVLRQLVR,inactive
16,DKIVI,-0.978 ± 0.54
17,QSMICTFFVLCLRSRYW,4.46 ± 0.068
18,VVNKLF,inactive
19,YVGSFVGSGIVLLNNSAVRH,3.4 ± 0.14
20,SLSFLKSGPLA,inactive
21,GLVSLLYGY,0.185 ± 0.34
22,NFSDWIYVFSEVPMLVRCRW,0.261 ± 0.42

row,Substance,amyloid nucleation score
1,IMFMGNTVIRDCDLQ,4.32 ± 0.062
2,SYVAFLSTTRASSMI,inactive
3,RWSFRLSTAIQGQPWSTPGD,5.95 ± 0.06
4,YVCVYTDF,-1.38 ± 0.55
5,WMGIWYGCVWVFGMVGANNR,2.2 ± 0.063
6,GEGVSIMYRWHL,1.21 ± 0.1
7,SPHASMTIVIF,1.04 ± 0.22
8,TVAKSLVYLSVCQVAA,0.035 ± 1
9,QYVEFPLMLTET,0.025 ± 0.79
10,VSLIFQIRLRHRLTGAQMKR,0.762 ± 0.37
11,VGRRSSKYESAELRVGSEVV,1.71 ± 0.12
12,FLEFLDTMWW,-0.233 ± 0.56
13,SSRSTCNINSYELSVSVQLR,5.35 ± 0.075
14,SNWNTTPVSPS,0.514 ± 0.44
15,RLDWREVHWLVRKTLL,0.648 ± 0.16
16,VPGRYFSQELVFTLFLGMAK,-1.43 ± 0.61
17,PCWCSVLVL,1.51 ± 0.41
18,TSIILGFFLMTTLQN,inactive
19,QFGNVRLSS,0.995 ± 0.53
20,ASPLQPLSGYVIVRVAPSIT,0.266 ± 0.51
21,VNSMAMLCLRICIGTHQMCG,5.03 ± 0.054
22,SVDYLCFVFNGGRSSSECQY,7.755 ± 0.032

row,Substance,amyloid nucleation score
1,GPISVKRYL,1.64 ± 0.35
2,ASCVVRGQYAQMVYCWRTLG,-0.072 ± 0.23
3,YFYITTCSGMSTDVFMNLLT,-0.422 ± 1
4,YPQGVGSDLTS,0.953 ± 0.19
5,HRKAYEPWFGCNMTYAGLGN,-0.232 ± 0.65
6,IFSHFILCKQAAVCTVNEFR,5.08 ± 0.072
7,LLKKRANGYHYSKNLKCPAR,-1.29 ± 1.1
8,VVSSGLHHRLLLCRIEGA,0.526 ± 0.26
9,GLFSSGRFVSADSM,-0.368 ± 0.54
10,LTSMEARLQMKVRDGFQNGE,0.437 ± 0.49
11,IETCKKAHRSKYTLFGLLLY,-0.383 ± 0.63
12,AQTSWNILFAKS,-0.501 ± 0.64
13,SVFSYMYRLNSALLYFFYQS,inactive
14,LRGHRPFLVY,-0.02 ± 1.1
15,ASIYNFYVLNSPFLF,4.73 ± 0.081
16,PVHSAVATVLTLVNGKIGGA,1.24 ± 0.48
17,QFCCVESLGLLALAWLFTGF,3.62 ± 0.11
18,FAIRYTVMTLFCIRLGLLKV,-0.707 ± 0.27
19,CHCMLIG,3.46 ± 0.066
20,YWTPYCIVIH,-0.965 ± 0.78
21,FTVDCLVVIFVYIEPMNWMG,0.672 ± 0.62
22,FVLWIRYALRVTDYTVYMGA,0.436 ± 0.39

row,Substance,amyloid nucleation score
1,LSALCES,0.98 ± 0.53
2,CKAIFFLLDPPTFIYRGSSC,0.079 ± 0.57
3,VTGTT,-0.01 ± 1
4,TVYIYSLVSRNKEVMFFTD,inactive
5,VCGVNV,-0.363 ± 1.1
6,MNMFMCFNGHNKRIVVKSKL,0.446 ± 0.42
7,VLNRLERASSVREQGIIRGR,0.252 ± 0.29
8,CVLTRVFETTSCVSIHLF,-1.64 ± 0.79
9,TDCTLSGKRLRYLNGDCFKK,-1.13 ± 0.55
10,VACHVR,0.975 ± 0.4
11,RYGAMKLDTSKS,0.11 ± 0.25
12,TCYMVWSLYC,3.93 ± 0.067
13,LNKMECPCLFCVCVAFVIEW,5.38 ± 0.067
14,AYVIRAKEC,0.162 ± 0.39
15,CVVRFRGPYKFCWPQDRSYS,0.247 ± 0.8
16,RETLAFA,-0.329 ± 0.33
17,HRSCVDTDVSDGWKGVESEA,0.599 ± 0.64
18,HRRSFGSQMYL,inactive
19,CFSLRVENSVRRTTTHPCLD,3.87 ± 0.075
20,NQKSLFVARETSTMFPSPYV,-0.141 ± 0.38
21,WRASK,3.23 ± 0.057

# Source: the supplement of paper PMC12042874
